The labels stand for the following.
T1: Mcm4 (Saccharomyces cerevisiae, UniProt P30665 1-933)
T1 sequence: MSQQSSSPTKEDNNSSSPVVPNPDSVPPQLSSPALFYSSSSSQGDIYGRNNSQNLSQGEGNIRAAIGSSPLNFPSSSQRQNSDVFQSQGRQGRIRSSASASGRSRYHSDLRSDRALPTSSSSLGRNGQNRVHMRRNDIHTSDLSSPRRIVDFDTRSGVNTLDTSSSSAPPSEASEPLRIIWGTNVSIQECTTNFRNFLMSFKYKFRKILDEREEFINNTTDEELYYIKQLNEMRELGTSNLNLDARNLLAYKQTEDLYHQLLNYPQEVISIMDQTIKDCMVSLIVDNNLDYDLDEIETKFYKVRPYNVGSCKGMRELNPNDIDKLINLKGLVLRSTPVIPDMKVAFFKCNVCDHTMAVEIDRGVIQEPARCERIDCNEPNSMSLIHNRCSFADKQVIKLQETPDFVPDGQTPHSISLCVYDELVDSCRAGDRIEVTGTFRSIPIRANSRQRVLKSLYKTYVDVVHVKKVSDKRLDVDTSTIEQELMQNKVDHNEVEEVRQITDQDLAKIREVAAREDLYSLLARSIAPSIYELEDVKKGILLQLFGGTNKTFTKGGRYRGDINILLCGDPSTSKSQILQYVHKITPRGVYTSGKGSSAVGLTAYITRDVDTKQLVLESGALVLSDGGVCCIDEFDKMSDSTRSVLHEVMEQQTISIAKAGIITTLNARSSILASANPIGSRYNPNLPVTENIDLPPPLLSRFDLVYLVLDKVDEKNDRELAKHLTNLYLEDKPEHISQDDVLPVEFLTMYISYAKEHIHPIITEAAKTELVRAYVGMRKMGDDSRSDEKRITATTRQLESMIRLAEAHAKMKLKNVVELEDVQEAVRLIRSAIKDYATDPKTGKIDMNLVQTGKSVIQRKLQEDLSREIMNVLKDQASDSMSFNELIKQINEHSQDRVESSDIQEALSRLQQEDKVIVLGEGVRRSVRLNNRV

T2: Mcm7 (Saccharomyces cerevisiae, UniProt P38132 1-845)
T2 sequence: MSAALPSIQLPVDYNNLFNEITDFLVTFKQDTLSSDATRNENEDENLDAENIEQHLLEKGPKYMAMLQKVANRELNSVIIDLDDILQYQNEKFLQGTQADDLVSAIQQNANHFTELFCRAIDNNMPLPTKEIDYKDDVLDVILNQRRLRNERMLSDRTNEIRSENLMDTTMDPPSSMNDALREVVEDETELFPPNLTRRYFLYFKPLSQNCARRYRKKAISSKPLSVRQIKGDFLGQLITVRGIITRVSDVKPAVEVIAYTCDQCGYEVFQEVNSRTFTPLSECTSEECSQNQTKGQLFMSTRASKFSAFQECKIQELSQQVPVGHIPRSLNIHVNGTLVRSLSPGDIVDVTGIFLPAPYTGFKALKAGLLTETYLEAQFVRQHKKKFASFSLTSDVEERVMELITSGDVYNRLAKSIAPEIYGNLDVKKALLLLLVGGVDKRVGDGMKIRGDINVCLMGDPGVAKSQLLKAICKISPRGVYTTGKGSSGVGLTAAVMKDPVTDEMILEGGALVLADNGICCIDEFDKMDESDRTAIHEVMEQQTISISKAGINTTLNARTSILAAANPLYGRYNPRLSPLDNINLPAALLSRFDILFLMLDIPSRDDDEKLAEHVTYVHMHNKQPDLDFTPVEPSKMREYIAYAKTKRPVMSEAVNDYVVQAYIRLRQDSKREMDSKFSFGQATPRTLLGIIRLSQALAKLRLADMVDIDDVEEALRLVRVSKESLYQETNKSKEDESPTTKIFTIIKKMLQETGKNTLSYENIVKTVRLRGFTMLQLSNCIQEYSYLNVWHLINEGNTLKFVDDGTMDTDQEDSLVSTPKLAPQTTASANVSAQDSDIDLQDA

B1: Mcm2 (natural protein)
chain: MSDNRRRRREEDDSDSENELPPSSPQQHFRGGMNPVSSPIGSPDMINPEGDDNEVDDVPDIDEVEEQMNEVDLMDDNMYEDYAADHNRDRYDPDQVDDREQQELSLSERRRIDAQLNERDRLLRNVAYIDDEDEEQEGAAQLDEMGLPVQRRRRRRQYEDLENSDDDLLSDMDIDPLREELTLESLSNVKANSYSEWITQPNVSRTIARELKSFLLEYTDETGRSVYGARIRTLGEMNSESLEVNYRHLAESKAILALFLAKCPEEMLKIFDLVAMEATELHYPDYARIHSEIHVRISDFPTIYSLRELRESNLSSLVRVTGVVTRRTGVFPQLKYVKFNCLKCGSILGPFFQDSNEEIRISFCTNCKSKGPFRVNGEKTVYRNYQRVTLQEAPGTVPPGRLPRHREVILLADLVDVSKPGEEVEVTGIYKNNYDGNLNAKNGFPVFATIIEANSIKRREGNTANEGEEGLDVFSWTEEEEREFRKISRDRGIIDKIISSMAPSIYGHRDIKTAVACSLFGGVPKNVNGKHSIRGDINVLLLGDPGTAKSQILKYVEKTAHRAVFATGQGASAVGLTASVRKDPITKEWTLEGGALVLADKGVCLIDEFDKMNDQDRTSIHEAMEQQSISISKAGIVTTLQARCSIIAAANPNGGRYNSTLPLAQNVSLTEPILSRFDILCVVRDLVDEEADERLATFVVDSHVRSHPENDEDREGEELKNNGESAIEQGEDEINEQLNARQRRLQRQRKKEEEISPIPQELLMKYIHYARTKIYPKLHQMDMDKVSRVYADLRRESISTGSFPITVRHLESILRIAESFAKMRLSEFVSSYDLDRAIKVVVDSFVDAQKVSVRRQLRRSFAIYTLGH
B2: Mcm5 (natural protein)
chain: MSFDRPEIYSAPVLQGESPNDDDNTEIIKSFKNFILEFRLDSQFIYRDQLRNNILVKNYSLTVNMEHLIGYNEDIYKKLSDEPSDIIPLFETAITQVAKRISILSRAQSANNNDKDPENTSMDTDSLLLNSLPTFQLILNSNANQIPLRDLDSEHVSKIVRLSGIIISTSVLSSRATYLSIMCRNCRHTTSITINNFNSITGNTVSLPRSCLSTIESESSMANESNIGDESTKKNCGPDPYIIIHESSKFIDQQFLKLQEIPELVPVGEMPRNLTMTCDRYLTNKVIPGTRVTIVGIYSIYNSKNGAGSGRSGGGNGGSGVAIRTPYIKILGIQSDVETSSIWNSVTMFTEEEEEEFLQLSRNPKLYEILTNSIAPSIFGNEDIKKAIVCLLMGGSKKILPDGMRLRGDINVLLLGDPGTAKSQLLKFVEKVSPIAVYTSGKGSSAAGLTASVQRDPMTREFYLEGGAMVLADGGVVCIDEFDKMRDEDRVAIHEAMEQQTISIAKAGITTVLNSRTSVLAAANPIYGRYDDLKSPGDNIDFQTTILSRFDMIFIVKDDHNEERDISIANHVINIHTGNANAMQNQQEENGSEISIEKMKRYITYCRLKCAPRLSPQAAEKLSSNFVTIRKQLLINELESTERSSIPITIRQLEAIIRITESLAKLELSPIAQERHVDEAIRLFQASTMDAASQDPIGGLNQASGTSLSEIRRFEQELKRRLPIGWSTSYQTLRREFVDTHRFSQLALDKALYALEKHETIQLRHQGQNIYRSGV
B3: Mcm3 (natural protein)
chain: MEGSTGFDGDATTFFAPDAVFGDRVRRFQEFLDTFTSYRDSVRSIQVYNSNNAANYNDDQDDADERDLLGDDDGDDLEKEKKAASSTSLNILPHRIIISLDDLREFDRSFWSGILVEPAYFIPPAEKALTDLADSMDDVPHPNASAVSSRHPWKLSFKGSFGAHALSPRTLTAQHLNKLVSVEGIVTKTSLVRPKLIRSVHYAAKTGRFHYRDYTDATTTLTTRIPTPAIYPTEDTEGNKLTTEYGYSTFIDHQRITVQEMPEMAPAGQLPRSIDVILDDDLVDKTKPGDRVNVVGVFKSLGAGGMNQSNSNTLIGFKTLILGNTVYPLHARSTGVAARQMLTDFDIRNINKLSKKKDIFDILSQSLAPSIYGHDHIKKAILLMLMGGVEKNLENGSHLRGDINILMVGDPSTAKSQLLRFVLNTASLAIATTGRGSSGVGLTAAVTTDRETGERRLEAGAMVLADRGVVCIDEFDKMTDVDRVAIHEVMEQQTVTIAKAGIHTTLNARCSVIAAANPVFGQYDVNRDPHQNIALPDSLLSRFDLLFVVTDDINEIRDRSISEHVLRTHRYLPPGYLEGEPVRERLNLSLAVGEDADINPEEHSNSGAGVENEGEDDEDHVFEKFNPLLQAGAKLAKNKGNYNGTEIPKLVTIPFLRKYVQYAKERVIPQLTQEAINVIVKNYTDLRNDDNTKKSPITARTLETLIRLATAHAKVRLSKTVNKVDAKVAANLLRFALLGEDIGNDIDEEESEYEEALSKRSPQKSPKKRQRVRQPASNSGSPIKSTPRRSTASSVNATPSSARRILRFQDDEQNAGEDDNDIMSPLPADEEAELQRRLQLGLRVSPRRREHLHAPEEGSSGPLTEVGTPRLPNVSSAGQDDEQQQSVISFDNVEPGTISTGRLSLISGIIARLMQTEIFEEESYPVASLFERINEELPEEEKFSAQEYLAGLKIMSDRNNLMVADDKVWRV

Holding throughout (test): SEC + co-IP
The target of the assay “Mcm3” is B3.
The target of another assay is T1, Mcm4.
A further assay addresses Mcm6 (Saccharomyces cerevisiae, UniProt P53091 1-1017).
A further assay addresses T2, Mcm7.

Sequence of Mcm6 (P53091 whole entry): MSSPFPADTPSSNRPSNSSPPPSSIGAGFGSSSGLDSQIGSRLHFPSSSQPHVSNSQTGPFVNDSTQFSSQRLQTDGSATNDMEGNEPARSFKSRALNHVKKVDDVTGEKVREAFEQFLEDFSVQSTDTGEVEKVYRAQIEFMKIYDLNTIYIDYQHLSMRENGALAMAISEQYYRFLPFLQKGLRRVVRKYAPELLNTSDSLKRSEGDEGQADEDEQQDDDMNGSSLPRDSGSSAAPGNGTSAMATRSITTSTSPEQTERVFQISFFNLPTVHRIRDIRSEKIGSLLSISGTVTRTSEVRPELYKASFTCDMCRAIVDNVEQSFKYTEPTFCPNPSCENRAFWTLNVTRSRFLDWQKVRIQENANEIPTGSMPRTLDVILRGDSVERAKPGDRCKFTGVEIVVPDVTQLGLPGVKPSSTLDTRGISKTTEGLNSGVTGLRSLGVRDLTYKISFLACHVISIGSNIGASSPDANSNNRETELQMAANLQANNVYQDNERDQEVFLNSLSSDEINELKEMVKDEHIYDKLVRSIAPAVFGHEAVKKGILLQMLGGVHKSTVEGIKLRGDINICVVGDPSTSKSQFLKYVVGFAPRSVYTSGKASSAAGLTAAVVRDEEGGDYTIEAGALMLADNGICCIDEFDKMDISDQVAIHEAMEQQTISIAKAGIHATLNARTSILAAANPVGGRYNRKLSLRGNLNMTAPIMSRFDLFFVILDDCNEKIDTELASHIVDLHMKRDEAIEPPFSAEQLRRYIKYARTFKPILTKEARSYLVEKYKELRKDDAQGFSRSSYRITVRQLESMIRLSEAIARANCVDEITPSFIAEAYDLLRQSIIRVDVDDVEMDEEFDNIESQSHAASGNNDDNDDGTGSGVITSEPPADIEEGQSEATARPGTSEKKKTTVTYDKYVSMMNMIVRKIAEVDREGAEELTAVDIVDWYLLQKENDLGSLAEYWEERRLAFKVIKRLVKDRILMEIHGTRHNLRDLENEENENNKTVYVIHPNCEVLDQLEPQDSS

As to B1, the binding result with Mcm3 and in the assay with Mcm4 was “binds” throughout.

On to B2, for which the binding result with Mcm6 and in the assay with Mcm7 was “binds” throughout. As to B3, the binding result with Mcm6 is given as “binds”.

These data come from article PMC2952866 (Nucleic Acids Research, 2010).
